The target of test [1] is T1, kallikrein (UniProt P03952 20-638).
T1 construct: also called plasma kallikrein
As to the kind of experiment: SPR kinetics (BIAcore 3000), Ir-CPI immobilized at about 200 RU, analyte at 6 concentrations from 5 nM to 300 nM. As to the method: Interaction kinetics were determined, for each analyte, with 6 different concentrations (from 5 nM to 300 nM). Binding data were analyzed using BIA evaluation software to determine the kinetic constants.
The ability of Ir-CPI to bind a (co)factor of coagulation or fibrinolysis was evaluated by surface plasmon resonance. […] Moreover, the kinetics of interaction between Ir-CPI and the four target factors (XIIa, XIa, plasmin and kallikrein) were measured after a new immobilization of Ir-CPI. In experiments to determine the binding kinetics, the quantity of immobilized Ir-CPI was deliberately kept at a low level (approximately 200 RU) in order to avoid problems where the reaction rate is limited by mass-transport. […] Interaction kinetics were determined for each analyte, at 6 different concentrations (from 5 nM to 300 nM). The kinetic data obtained were individually processed with BIA evaluation software in order to determine the kinetics constants. […] FIG. 9 represents sensorgrams for interactions between coagulation factors and immobilized Ir-CPI measured by surface plasmon resonance. Ir-CPI was immobilized onto the surface of a sensor chip CM5 at level of 1500 resonance units (RUs). Contact factors (100 nM final concentration) were injected at a flow rate of 70 μl/min in HBS buffer, and association was monitored. After return to buffer flow, dissociation was monitored during 84 s. […]

The target in test [2] is T2, high molecular weight kininogen (UniProt P01042 19-644).
T2 construct: also called HMWK
T2 sequence (looked up): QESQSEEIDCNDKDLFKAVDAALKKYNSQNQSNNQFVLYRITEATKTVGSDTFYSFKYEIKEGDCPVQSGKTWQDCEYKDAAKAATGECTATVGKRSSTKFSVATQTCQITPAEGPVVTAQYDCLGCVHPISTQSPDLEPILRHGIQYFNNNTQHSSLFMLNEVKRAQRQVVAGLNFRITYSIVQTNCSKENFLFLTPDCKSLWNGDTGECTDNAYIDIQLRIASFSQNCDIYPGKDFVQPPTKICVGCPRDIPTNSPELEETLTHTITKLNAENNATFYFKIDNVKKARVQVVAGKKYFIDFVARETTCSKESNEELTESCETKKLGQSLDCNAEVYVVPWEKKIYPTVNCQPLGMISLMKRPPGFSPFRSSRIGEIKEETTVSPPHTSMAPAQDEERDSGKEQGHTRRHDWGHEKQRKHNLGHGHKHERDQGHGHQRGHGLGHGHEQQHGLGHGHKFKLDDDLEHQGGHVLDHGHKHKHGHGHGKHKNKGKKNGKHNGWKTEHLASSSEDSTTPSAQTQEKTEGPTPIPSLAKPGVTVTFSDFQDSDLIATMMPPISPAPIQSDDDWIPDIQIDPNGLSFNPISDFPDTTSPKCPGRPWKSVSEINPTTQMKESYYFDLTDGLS
As to the kind of experiment: SPR (BIAcore 3000), Ir-CPI immobilized on CM5 chip, factor injected as analyte. The procedure: (§1) The interaction between Ir-CPI and coagulation or fibrinolytic factors was monitored using a BIAcore 3000 instrument (BIAcore AB, Sweden). Ir-CPI (15 μM) was immobilized on the surface of a CM5 sensor chip in 10 mM acetate buffer, pH 5.0, by the amine coupling procedure according to the manufacturer's instructions. 1500 resonance units (RU) of immobilized Ir-CPI were used for the assay. To subtract the non-specific component from the apparent binding response, a blank flow cell was prepared using the same immobilizing procedure without Ir-CPI. Binding analyses were carried out using HBS buffer (HEPES10 mM, NaCl 150 mM, EDTA 3 mM; pH 7.4 with 0.005% surfactant P20) as running buffer at 25° C. 100 μl of each analyte (100 nM) was injected on the sensor chip at a flow rate of 70 μl/min. Association was monitored during an 84 s injection of analyte. Dissociation was monitored for 3 min after return to the running buffer.
(§2) The ability of Ir-CPI to bind a (co)factor of coagulation or fibrinolysis was evaluated by surface plasmon resonance. […] Moreover, the kinetics of interaction between Ir-CPI and the four target factors (XIIa, XIa, plasmin and kallikrein) were measured after a new immobilization of Ir-CPI. In experiments to determine the binding kinetics, the quantity of immobilized Ir-CPI was deliberately kept at a low level (approximately 200 RU) in order to avoid problems where the reaction rate is limited by mass-transport. […] Interaction kinetics were determined for each analyte, at 6 different concentrations (from 5 nM to 300 nM). The kinetic data obtained were individually processed with BIA evaluation software in order to determine the kinetics constants.

For test [3], the target named is T3, factor VIIa (UniProt P08709 61-466).
T3 construct: also called fVIIa; FVIIa
T3 sequence (looked up): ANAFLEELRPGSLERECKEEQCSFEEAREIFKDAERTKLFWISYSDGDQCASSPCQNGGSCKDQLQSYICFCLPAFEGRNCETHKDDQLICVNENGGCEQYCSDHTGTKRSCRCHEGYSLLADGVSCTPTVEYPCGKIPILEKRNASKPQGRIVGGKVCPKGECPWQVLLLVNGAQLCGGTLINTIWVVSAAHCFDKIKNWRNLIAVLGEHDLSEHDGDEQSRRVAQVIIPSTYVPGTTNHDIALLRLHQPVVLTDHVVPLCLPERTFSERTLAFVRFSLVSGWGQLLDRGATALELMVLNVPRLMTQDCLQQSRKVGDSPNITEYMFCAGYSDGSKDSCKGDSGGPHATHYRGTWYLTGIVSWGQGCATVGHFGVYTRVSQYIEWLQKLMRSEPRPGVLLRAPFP
The test is described as above. The procedure:
as §1, §2

Test [4] deals with t-PA (UniProt P00750 36-562). The description is as above. As to the method: as §1, §2
t-PA, sequence (P00750 36-562 limits assumed): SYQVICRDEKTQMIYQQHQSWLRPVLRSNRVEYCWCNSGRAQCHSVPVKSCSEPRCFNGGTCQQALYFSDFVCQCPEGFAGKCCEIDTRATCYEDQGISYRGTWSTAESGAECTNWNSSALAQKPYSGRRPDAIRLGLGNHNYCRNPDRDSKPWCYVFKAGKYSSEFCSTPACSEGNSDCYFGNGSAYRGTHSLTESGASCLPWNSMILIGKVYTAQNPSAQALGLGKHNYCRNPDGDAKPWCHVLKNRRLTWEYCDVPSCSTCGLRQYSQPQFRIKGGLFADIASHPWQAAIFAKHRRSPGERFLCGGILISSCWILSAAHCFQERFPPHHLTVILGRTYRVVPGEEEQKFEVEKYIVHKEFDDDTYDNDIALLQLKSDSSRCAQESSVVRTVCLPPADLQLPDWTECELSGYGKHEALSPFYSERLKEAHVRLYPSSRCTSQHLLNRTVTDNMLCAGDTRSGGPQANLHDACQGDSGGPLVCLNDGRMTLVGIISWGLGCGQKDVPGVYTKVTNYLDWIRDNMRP
Test [5] deals with plasminogen (UniProt P00747 20-810, limits assumed). The description is as above. As to the method:
as §1, §2

Test [6] addresses thrombin (UniProt P00734 328-622). The test is described as above. As to the method:
as §1, §2

The target of test [7] is T4, factor IXa (UniProt P00740 47-191; P00740 227-461).
T4 construct: read as fIXa; also called FIXa
The description is as above. As to the method: as §1, §2

In test [8] the target is T5, factor IX (UniProt P00740 47-461).
T5 construct: also called fIX
The test is described as above. As to the method: as §1, §2

Test [9] has as its target T6, factor X (UniProt P00742 41-488).
T6 construct: also called fX
The description is as above. As to the method:
as §1, §2

1 molecule from patent US20080219970A1 (published 2008) can be followed below.

T1 sequence (P03952 20-638 limits assumed): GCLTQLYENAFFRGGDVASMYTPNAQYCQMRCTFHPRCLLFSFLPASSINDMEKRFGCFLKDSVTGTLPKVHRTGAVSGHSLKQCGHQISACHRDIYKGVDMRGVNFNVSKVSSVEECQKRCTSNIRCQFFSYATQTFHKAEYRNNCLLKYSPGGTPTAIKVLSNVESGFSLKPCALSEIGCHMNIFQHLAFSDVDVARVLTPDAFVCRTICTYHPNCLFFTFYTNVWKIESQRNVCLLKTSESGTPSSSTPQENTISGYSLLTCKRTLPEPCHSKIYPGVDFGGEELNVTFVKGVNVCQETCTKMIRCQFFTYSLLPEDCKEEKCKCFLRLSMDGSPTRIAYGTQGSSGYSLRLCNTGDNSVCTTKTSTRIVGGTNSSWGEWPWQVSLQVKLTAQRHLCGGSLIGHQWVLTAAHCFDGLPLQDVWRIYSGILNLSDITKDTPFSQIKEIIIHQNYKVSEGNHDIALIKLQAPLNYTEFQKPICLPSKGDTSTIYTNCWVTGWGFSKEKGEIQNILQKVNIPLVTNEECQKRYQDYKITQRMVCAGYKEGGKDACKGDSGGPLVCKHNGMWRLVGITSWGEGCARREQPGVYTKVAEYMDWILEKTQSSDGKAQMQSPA
plasminogen, sequence (P00747 20-810 limits assumed): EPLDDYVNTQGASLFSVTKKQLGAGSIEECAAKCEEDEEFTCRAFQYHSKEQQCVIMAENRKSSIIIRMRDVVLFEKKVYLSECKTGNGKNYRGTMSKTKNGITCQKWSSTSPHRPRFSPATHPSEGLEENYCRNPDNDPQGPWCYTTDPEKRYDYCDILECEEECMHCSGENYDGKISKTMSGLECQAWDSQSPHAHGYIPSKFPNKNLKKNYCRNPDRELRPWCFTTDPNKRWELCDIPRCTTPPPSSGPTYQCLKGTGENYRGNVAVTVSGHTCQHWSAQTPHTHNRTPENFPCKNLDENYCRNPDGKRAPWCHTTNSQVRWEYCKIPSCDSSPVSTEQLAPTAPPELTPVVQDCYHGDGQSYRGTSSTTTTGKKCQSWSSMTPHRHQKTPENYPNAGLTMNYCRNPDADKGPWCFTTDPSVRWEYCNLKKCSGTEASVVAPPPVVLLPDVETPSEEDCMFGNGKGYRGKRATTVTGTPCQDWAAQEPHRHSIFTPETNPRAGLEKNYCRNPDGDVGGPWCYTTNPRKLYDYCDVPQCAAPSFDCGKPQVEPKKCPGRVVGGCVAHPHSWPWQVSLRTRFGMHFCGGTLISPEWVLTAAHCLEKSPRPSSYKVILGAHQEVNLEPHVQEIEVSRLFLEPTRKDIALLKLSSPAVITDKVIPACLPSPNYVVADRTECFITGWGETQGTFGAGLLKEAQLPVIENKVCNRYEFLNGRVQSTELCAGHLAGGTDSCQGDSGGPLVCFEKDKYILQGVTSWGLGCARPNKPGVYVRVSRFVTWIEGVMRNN

B1: Ir-CPI (Ixodes ricinus Contact Phase Inhibitor), recombinant, without its peptide signal (other)
chain: ANHKGRGRPAKCKLPPDDGPCRARIPSYYFDRKTKTCKEFMYGGCEGNENNFENITTCQEECRAKKV
notes: Immobilized on a CM5 chip by amine coupling for SPR; also called recombinant Ir-CPI
The molecule B1 registered a Kd in [1] of 200 nM. Further, the binding result in test [2], in test [3], in [4], in test [5], in [6] and in test [7] was “no binding (tested: 100 nM)” throughout. The binding result in test [8] and in [9] was “no binding (tested: 100 nM)” each time.
